Results from the supplement of paper PMC7877785.
± gives the uncertainty stated by the source.

Experiment: self-splicing fitness, log relative to wild type (ln ratio); higher = more splicing; Tetrahymena group I intron in knt gene, E. coli kanamycin selection, DiMSum; sequences stand for … in CUCUCU…GGAGGGAAAAGUUAUCAGGCAUGCACCUGGUAGCUAGUCUUUAAACCAAUAGAUUGCAUCGGUUUAAAAGGCAAGACCGUCAAAUUGCGGGAAAGGGGUCAACAGCCGUUCAGUACCAAGUCUCAGGGGAAACUUUGAGAUGGCCUUGCAAAGGGUAUGGUAAUAAGCUGACGGACAUGGUCCUAACCACGCAGCCAAGUCCUAAGUCAACAGAUCUUCUGUUGAUAUGGAUGCAGUUCACAGACUAAAUGUCGGUCGGGGAAGAUGUAUUCUUCUCAUAAGAUAUAGUCGGACCUCUCCUUAAUGGGAGCUAGCGGAUGAAGUGAUGCAACACUGGAGCCGCUGGGAACUAAUUUGUAUGCGAAAGUAUAUUGAUUAGUUUUGGAGUACUCGUGGUCG
In short: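 Library with all eight P1ex-region intron nucleotides randomised, intron inside the knt kanamycin-resistance gene on pET-22b(+), in E. coli BL21(DE3). Cells grew overnight at 37°C or 30°C on LB agar with or without 25 μg/mL kanamycin (plus 100 μg/mL carbenicillin, 50 μM IPTG, 0.2% rhamnose), in six replicate transformations. Pooled colonies were amplicon-sequenced on Illumina HiSeq 2500. DiMSum fitness is the error-weighted combination of wild-type-normalised replicate fold changes, kanamycin versus none.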

| Sequence | self-splicing fitness (ln) (30 °C) | self-splicing fitness (ln) (37 °C) |
| --- | --- | --- |
| CCCAAGCAAUAUUACGUGCU | -2.08 ± 0.11 | -2.6 ± 0.2 |
| CCCAAGCAAUAUUACGUGGC | -3.5 ± 0.13 | -2.8 ± 0.18 |
| CCCCAGCAAUAUUACGAACA | -2.51 ± 0.17 | -2.85 ± 0.28 |
| CCCCAGCAAUAUUACGACUA | -2.66 ± 0.17 | -2.93 ± 0.28 |
| CCCCAGCAAUAUUACGAGCA | -1.5 ± 0.14 | -3.13 ± 0.34 |
| CCCCAGCAAUAUUACGCCCG | -1.79 ± 0.17 | -2.57 ± 0.28 |
| CCCCAGCAAUAUUACGCGAA | -4.21 ± 0.15 | -1.69 ± 0.14 |
| CCCCAGCAAUAUUACGCUGG | -2.76 ± 0.11 | -1.73 ± 0.14 |
| CCCCAGCAAUAUUACGGGCG | -3.69 ± 0.15 | -1.94 ± 0.11 |
| CCCCAGCAAUAUUACGGUAU | -3.72 ± 0.13 | -2.88 ± 0.2 |
| CCCCAGCAAUAUUACGGUCA | -2.71 ± 0.16 | -0.931 ± 0.13 |
| CCCCAGCAAUAUUACGUACC | -4.07 ± 0.18 | -3.36 ± 0.35 |
| CCCCAGCAAUAUUACGUAGA | -2.95 ± 0.12 | -2.7 ± 0.18 |
| CCCCAGCAAUAUUACGUCGA | -4.09 ± 0.23 | -2.27 ± 0.15 |
| CCCCAGCAAUAUUACGUUCA | -2.97 ± 0.12 | -2.84 ± 0.2 |
| CCCGAGCAAUAUUACGAACA | -2.93 ± 0.3 | -2.51 ± 0.35 |
| CCCGAGCAAUAUUACGACAU | -3.865 ± 0.026 | -2.88 ± 0.041 |
| CCCGAGCAAUAUUACGAUAC | -2.29 ± 0.27 | -1.57 ± 0.36 |
| CCCGAGCAAUAUUACGAUGU | -3.46 ± 0.25 | -2.13 ± 0.27 |
| CCCGAGCAAUAUUACGCCAC | -3.54 ± 0.26 | -2.84 ± 0.31 |
| CCCGAGCAAUAUUACGCUCU |  | -2.7 ± 0.29 |
| CCCGAGCAAUAUUACGCUGA | -3.44 ± 0.35 | -2.26 ± 0.2 |
| CCCGAGCAAUAUUACGCUGC | -2.93 ± 0.21 | -2.63 ± 0.3 |
| CCCGAGCAAUAUUACGGAGU | -3.46 ± 0.25 | -2.87 ± 0.22 |
| CCCGAGCAAUAUUACGGAUU | -4.16 ± 0.18 | -2.55 ± 0.17 |

| Sequence | self-splicing fitness (ln) (30 °C) | self-splicing fitness (ln) (37 °C) |
| --- | --- | --- |
| CCCGAGCAAUAUUACGGCAU | -3.28 ± 0.37 | -1.85 ± 0.32 |
| CCCGAGCAAUAUUACGGGAC | -3.05 ± 0.18 | -1.89 ± 0.19 |
| CCCGAGCAAUAUUACGGUCA | -4.25 ± 0.46 | -2.57 ± 0.26 |
| CCCGAGCAAUAUUACGGUUG | -3.65 ± 0.15 | -1.81 ± 0.11 |
| CCCGAGCAAUAUUACGUAUU | -3.8 ± 0.17 | -3.48 ± 0.24 |
| CCCGAGCAAUAUUACGUCAU | -3.95 ± 0.31 | -2.99 ± 0.26 |
| CCCGAGCAAUAUUACGUCUG | -3.73 ± 0.29 | -2.32 ± 0.26 |
| CCCGAGCAAUAUUACGUGUU | -3.93 ± 0.15 | -3 ± 0.17 |
| CCCGAGCAAUAUUACGUUCG | -4.22 ± 0.42 | -2.55 ± 0.3 |
| CCCUAGCAAUAUUACGAACA |  | -2.55 ± 0.42 |
| CCCUAGCAAUAUUACGAAGG | -4.03 ± 0.21 | -2.71 ± 0.23 |
| CCCUAGCAAUAUUACGAGCG | -2.86 ± 0.21 | -1.13 ± 0.19 |
| CCCUAGCAAUAUUACGAUUG | -3.45 ± 0.21 | -2.38 ± 0.21 |
| CCCUAGCAAUAUUACGCAGA | -3.68 ± 0.31 | -1.73 ± 0.15 |
| CCCUAGCAAUAUUACGCCAC | -2.88 ± 0.27 | -1.6 ± 0.26 |
| CCCUAGCAAUAUUACGCCCA | -3.12 ± 0.25 | -3.76 ± 0.42 |
| CCCUAGCAAUAUUACGCUCG | -2.25 ± 0.2 | -2.85 ± 0.48 |
| CCCUAGCAAUAUUACGCUUA | -3.78 ± 0.18 | -2.86 ± 0.12 |
| CCCUAGCAAUAUUACGCUUC | -2.66 ± 0.1 | -2.36 ± 0.16 |
| CCCUAGCAAUAUUACGGACC | -0.914 ± 0.3 |  |
| CCCUAGCAAUAUUACGGAGG | -2.87 ± 0.15 | -2.77 ± 0.26 |
| CCCUAGCAAUAUUACGGCAU | -3.41 ± 0.24 | -1.94 ± 0.17 |
| CCCUAGCAAUAUUACGGGGG | -3.85 ± 0.24 | -3.36 ± 0.3 |
| CCCUAGCAAUAUUACGUCAA | -3.16 ± 0.32 | -3.46 ± 0.39 |
| CCCUAGCAAUAUUACGUCCG | -4.17 ± 0.26 | -2.57 ± 0.23 |

| Sequence | self-splicing fitness (ln) (30 °C) | self-splicing fitness (ln) (37 °C) |
| --- | --- | --- |
| CCCUAGCAAUAUUACGUCCU | -4.12 ± 0.37 | -2.06 ± 0.28 |
| CCCUAGCAAUAUUACGUCUC | -3.71 ± 0.41 | -2.67 ± 0.27 |
| CCCUAGCAAUAUUACGUUAU | -4.33 ± 0.26 | -2.76 ± 0.19 |
| CCGAAGCAAUAUUACGACUA | -2.1 ± 0.37 | -2.65 ± 0.36 |
| CCGAAGCAAUAUUACGAUAG | -0.89 ± 0.061 | -0.284 ± 0.08 |
| CCGAAGCAAUAUUACGCAAU | -3.92 ± 0.4 | -1.94 ± 0.23 |
| CCGAAGCAAUAUUACGCACA | -3.87 ± 0.37 | -2.59 ± 0.28 |
| CCGAAGCAAUAUUACGCACU | -2.98 ± 0.26 | -2.68 ± 0.44 |
| CCGAAGCAAUAUUACGCGAG | -2.65 ± 0.11 | -2.08 ± 0.15 |
| CCGAAGCAAUAUUACGGAGA | -2.52 ± 0.25 | -2.68 ± 0.34 |
| CCGAAGCAAUAUUACGGAUG | -2.94 ± 0.19 | -0.504 ± 0.095 |
| CCGAAGCAAUAUUACGGCCG | -0.396 ± 0.099 | -0.442 ± 0.12 |
| CCGAAGCAAUAUUACGGUAU | -3.13 ± 0.25 | -3.64 ± 0.36 |
| CCGAAGCAAUAUUACGGUGA |  | -3.25 ± 0.43 |
| CCGAAGCAAUAUUACGGUGC | -3.26 ± 0.3 | -2.26 ± 0.39 |
| CCGAAGCAAUAUUACGUGAA | -3.64 ± 0.16 | -2.82 ± 0.14 |
| CCGAAGCAAUAUUACGUGCC | -2.83 ± 0.29 | -2.64 ± 0.44 |
| CCGAAGCAAUAUUACGUGUA | -4.03 ± 0.22 | -2.81 ± 0.19 |
| CCGAAGCAAUAUUACGUUCC | -3.94 ± 0.37 | -2.81 ± 0.37 |
| CCGCAGCAAUAUUACGACUU | -3.51 ± 0.35 | -1.68 ± 0.32 |
| CCGCAGCAAUAUUACGAGAG | -2.62 ± 0.084 | -1.56 ± 0.082 |
| CCGCAGCAAUAUUACGAGCA | -3.01 ± 0.38 | -3.24 ± 0.47 |
| CCGCAGCAAUAUUACGCACU | -2.9 ± 0.19 | -2.51 ± 0.24 |
| CCGCAGCAAUAUUACGCAUG | -2.91 ± 0.1 | -0.661 ± 0.076 |
| CCGCAGCAAUAUUACGCCAA | -3.73 ± 0.38 | -2.06 ± 0.34 |

| Sequence | self-splicing fitness (ln) (30 °C) | self-splicing fitness (ln) (37 °C) |
| --- | --- | --- |
| CCGCAGCAAUAUUACGCCCA |  | -2.55 ± 0.31 |
| CCGCAGCAAUAUUACGCGCA | -3.08 ± 0.27 | -1.41 ± 0.16 |
| CCGCAGCAAUAUUACGCGUA | -2.58 ± 0.16 | -0.978 ± 0.11 |
| CCGCAGCAAUAUUACGCUCU | -4.04 ± 0.42 | -2.18 ± 0.2 |
| CCGCAGCAAUAUUACGCUGG | -2.24 ± 0.11 | -2.92 ± 0.24 |
| CCGCAGCAAUAUUACGCUGU | -3.3 ± 0.36 | -2.85 ± 0.23 |
| CCGCAGCAAUAUUACGCUUU | -3.86 ± 0.18 | -2.97 ± 0.18 |
| CCGCAGCAAUAUUACGGAAC | -3.52 ± 0.41 | -3.41 ± 0.29 |
| CCGCAGCAAUAUUACGGAGC | -3.52 ± 0.14 | -2.48 ± 0.18 |
| CCGCAGCAAUAUUACGGAGU | -4.11 ± 0.21 | -3.01 ± 0.23 |
| CCGCAGCAAUAUUACGGCUA | -3.46 ± 0.23 | -2.61 ± 0.22 |
| CCGCAGCAAUAUUACGGCUU | -4.44 ± 0.27 | -2.45 ± 0.21 |
| CCGCAGCAAUAUUACGGGAC | -4.12 ± 0.46 | -2.65 ± 0.29 |
| CCGCAGCAAUAUUACGGGAG | -3.26 ± 0.16 | -3.06 ± 0.24 |
| CCGCAGCAAUAUUACGGGCU | -3.56 ± 0.18 | -3.05 ± 0.22 |
| CCGCAGCAAUAUUACGGUUC | -3.51 ± 0.28 | -3.67 ± 0.37 |
| CCGCAGCAAUAUUACGUGGG | -3.41 ± 0.12 | -3.02 ± 0.17 |
| CCGCAGCAAUAUUACGUUAA | -3.03 ± 0.18 | -2.1 ± 0.2 |
| CCGCAGCAAUAUUACGUUUG | -1.62 ± 0.065 | -1.36 ± 0.096 |
| CCGGAGCAAUAUUACGAAUC | -4.01 ± 0.46 |  |
| CCGGAGCAAUAUUACGACCG | -1.71 ± 0.5 |  |
| CCGGAGCAAUAUUACGCAAU | -2.59 ± 0.36 |  |
